Laboratory results: patent US12509709B2, “Methods for making L-glufosinate” (BASF SE, priority 2016, dated 2025)

Tests used:
weeds = details: EP 0030424; cited from earlier work
[1] = Conversion of PPO to L-glufosinate with isopropylamine as amine donor; assay type: biochemical; details: 0.25 mg/mL TA, 25 mM PPO, 250 mM isopropylamine, pH 8.0, 25 to 30° C.
Description: Isopropylamine can be used as an amine donor for conversion of PPO to L-glufosinate with the use of an appropriate TA. PPO was converted to L-glufosinate in a reaction with the following components: • 0.25 mg/mL TA encoded by SEQ ID NO: 1 • 25 mM PPO • 0.2 mM pyridoxal phosphate • 250 mM isopropylamine (pHed to 8 w/H3PO4) • 100 mM Kphos buffer pH 8.0
The reaction was incubated at 25 to 30° C. for 30 hours with gentle shaking (250 rpm). At 0 hours, the amount of L-glufosinate as measured by HPLC was 0 mM, at 20 hours it was 14 mM, and at 30 hours it was 18 mM.

[2] = Conversion of PPO to L-glufosinate with lysine as amine donor; assay type: biochemical; details: over 20 hours; 0.4 mg/mL gabT, 25 mM PPO, 75 mM L-Lysine, pH 8.0, 30° C.
Description: Lysine can be used as an amine donor for conversion of PPO to L-glufosinate with the use of an appropriate TA. PPO was converted to L-glufosinate in a reaction with the following components: • 0.4 mg/mL gabT (purified as in Example 3) • 25 mM PPO (pHed to 8 w/NaOH) • 0.2 mM pyridoxal phosphate • 75 mM L-Lysine dihydrochloride (pHed to 8 w/NaOH) • 100 mM Kphos buffer pH 8.0
The reaction was incubated at 30° C. for 20 hours with shaking (250 rpm). L-glufosinate was formed at a rate of 0.4 mM/hr over the 20 hours.

Molecule: CP(=O)(O)CCC(=O)C(=O)O [PPO, 2-oxo-4-(hydroxy(methyl)phosphinoyl)butyric acid]
- herbicidal activity (weeds): can contribute herbicidal activity

B1: TA encoded by SEQ ID NO: 1: transaminase with the amino acid sequence of SEQ ID NO: 1 (protein, listed as Sinorhizobium arboris)
chain: MNIAAQSWERREATSFFHTFTDLPSLKTDGPVIIDHGEGPYIIDTVGRRYFEGNSGLWNMTLGFSERRLSDAALKQYQEFPGYHTFFGRNSKPTVELAERMLKLAPAPMSRVFFTNSGSEANESIVKLLWMMWAAEGRPERRKLLTRKNAYHGATVMASALTGKDYVKAFGLPGPEIVTLDCPHAWRFALPGEGDDEFAARLAANLETRILQEGPETIAGMFAEPVMGAGGVIVPPATYFAKIQPVLQRYGIPLIADEVICGFGRTGSLWGTLAVGQQPDIIVASKSMSAGYFPMGAVMLSADIDKRATAASEVWEEFPHGFTTGGHPVGCAISLEAIRIITEEGVFENVKSVSETFQSGLRALADHPMIGEARGMGLMGALETVADKKTKQSFSGDLRIGERISKEARDRGFIIRPLGSSVVLAPPFISTHGQIEELLAVLKEVLDVVYGTVKGEVA
modifications: Sinorhizobium arboris sp. nov.
- amount of L-glufosinate formed (HPLC) ([1]; at 20 hours): 14 mM
- amount of L-glufosinate formed (HPLC) ([1]; at 30 hours): 18 mM

B2: gabT: gabT transaminase from Escherichia coli (UniProt P22256; SEQ ID NO: 3) (protein, listed as Escherichia coli)
chain: MNSNKELMQRRSQAIPRGVGQIHPIFADRAENCRVWDVEGREYLDFAGGIAVLNTGHLHPKVVAAVEAQLKKLSHTCFQVLAYEPYLELCEIMNQKVPGDFAKKTLLVTTGSEAVENAVKIARAATKRSGTIAFSGAYHGRTHYTLALTGKVNPYSAGMGLMPGHVYRALYPCPLHGISEDDAIASIHRIFKNDAAPEDIAAIVIEPVQGEGGFYASSPAFMQRLRALCDEHGIMLIADEVQSGAGRTGTLFAMEQMGVAPDLTTFAKSIAGGFPLAGVTGRAEVMDAVAPGGLGGTYAGNPIACVAALEVLKVFEQENLLQKANDLGQKLKDGLLAIAEKHPEIGDVRGLGAMIAIELFEDGDHNKPDAKLTAEIVARARDKGLILLSCGPYYNVLRILVPLTIEDAQIRQGLEIISQCFDEAKQ
- rate of L-glufosinate formation [2]: 0.4 mM/h
